Experimental data: patent US20230303666A1 (published 2023)

Biological target: recombinant RBD (ThermoFisher, RP-87678) (SARS-CoV-2, UniProt P0DTC2 319-541)

B1: SR6v15 with GST tag (VHH, not shown: a dimerising Fc or GST)
VHH: EVQLVESGGGLVQAGDSLRLSCAASGDSYILWRMGWFRQAPGKEREFVAAISLDGQFTNYADSVRGRFSISADSAKYTVYLQMNSLKPEDTAVYYCAALPFLDYWGQGTQVTVSS
  Kd: 2.18 nM
